Laboratory results as given in PMC6176016.

Assays:
Assay in all cases: FRET by FACS (LSRII)
WT TACI-YFP = settings: HEK-293T cells, double positive YFP and mCherry gate, 6 independent experiments, read off a plot
[1] = biological target: TACI-L (long TACI isoform) labeled with mCherry or YFP (UniProt O14836); settings: co-transfected HEK-293T cells; percent of live cells in the gate, averaged for 6 experiments
[2] = biological target: CD40-eYFP (pReceiver-huCD40-eYFP) (UniProt P25942); settings: co-transfected HEK-293T cells; percent of live cells in the gate, averaged for 6 experiments
[3] = biological target: TACI-S (short TACI isoform) labeled with mCherry or YFP, O14836-2; settings: co-transfected HEK-293T cells; percent of live cells in the gate, averaged for 6 experiments
TACI-S (short TACI isoform) labeled with mCherry or YFP, O14836-2, sequence (O14836 other isoform, or with tags, fused parts or gaps): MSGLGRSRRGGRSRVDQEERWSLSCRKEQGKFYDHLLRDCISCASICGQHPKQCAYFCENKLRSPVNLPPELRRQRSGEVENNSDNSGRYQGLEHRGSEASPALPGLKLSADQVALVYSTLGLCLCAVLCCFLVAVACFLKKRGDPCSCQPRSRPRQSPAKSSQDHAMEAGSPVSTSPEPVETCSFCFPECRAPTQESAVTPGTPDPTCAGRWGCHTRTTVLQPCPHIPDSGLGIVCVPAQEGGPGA

TACI-L (long TACI isoform) labeled with mCherry or YFP, sequence (O14836 whole entry, canonical isoform): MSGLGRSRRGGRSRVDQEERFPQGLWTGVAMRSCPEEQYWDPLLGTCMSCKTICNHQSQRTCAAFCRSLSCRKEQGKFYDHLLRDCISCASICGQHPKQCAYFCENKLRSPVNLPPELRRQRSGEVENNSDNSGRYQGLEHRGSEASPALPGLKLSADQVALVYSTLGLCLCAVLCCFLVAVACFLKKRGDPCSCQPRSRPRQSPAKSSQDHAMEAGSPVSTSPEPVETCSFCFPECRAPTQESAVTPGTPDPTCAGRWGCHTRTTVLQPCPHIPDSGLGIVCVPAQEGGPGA
CD40-eYFP (pReceiver-huCD40-eYFP), sequence (P25942 21-277): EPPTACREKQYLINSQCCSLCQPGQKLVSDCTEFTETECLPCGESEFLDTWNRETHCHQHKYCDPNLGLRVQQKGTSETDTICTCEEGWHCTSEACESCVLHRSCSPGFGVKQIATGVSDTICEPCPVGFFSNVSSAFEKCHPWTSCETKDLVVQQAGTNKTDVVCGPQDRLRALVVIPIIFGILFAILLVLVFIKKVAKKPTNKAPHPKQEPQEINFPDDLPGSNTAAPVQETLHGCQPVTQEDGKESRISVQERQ

| Substance | response (% FRET positive cells) (WT TACI-YFP; parent: est. 90) | response (% FRET positive cells) (WT TACI-YFP; parent: est. 72) | response (% FRET positive cells) [1] | response (% FRET positive cells) [2] | response (% FRET positive cells) [3] |
| --- | --- | --- | --- | --- | --- |
| TACI-L A181E | 72 | – | – | – | – |
| TACI-L C104R | 81 | – | – | – | – |
| TACI-S A181E | – | 88 | – | – | – |
| TACI-S C104R | – | 74 | – | – | – |
| WT TACI (isoform of the mutant not stated in the panel) A181E | – | – | 16.8 | 0.38 | 19.6 |
| WT TACI (isoform of the mutant not stated in the panel) C104R | – | – | 14.8 | 0.02 | 18.7 |
